# Assay results reported in patent US20070042954A1.
# Where two headings read alike, the source gives them in different places. Where no end group is shown, it is not given here.
# T1: mam sCRFR2α (mouse soluble CRF receptor type 2α, amino acids 1-143 with a FLAG epitope following amino acid 143, purified from COS M6 cell media) (mouse)
# T1 chain: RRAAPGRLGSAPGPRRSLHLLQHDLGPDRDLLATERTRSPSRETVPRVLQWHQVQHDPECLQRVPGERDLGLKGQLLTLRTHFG
# Legend:
# Assay in all cases: radioreceptor assay, displacement of [125I-DTyr0]-astressin from purified sCRFR2α
# [1] = target: bact sCRFR2α (mouse soluble CRF receptor type 2α, amino acids 20-143, purified from E. coli) (mouse)
# [2] = target: mam sCRFR2α (mouse soluble CRF receptor type 2α, amino acids 1-143 with a FLAG epitope following amino acid 143, purified from COS M6 cell media) (mouse)
# [3] = target: T1, mam sCRFR2α (mouse soluble CRF receptor …)
Ki [1],Ki [2],Ki [3],Binder
5.8 nM,6.6 nM,,"DDPPLSIDLTFHLLRTLLELARTQSQRERAEQNRIIFDSV (peptide, UniProt P55090 81-120, looked up) [rUcn1 (urocortin 1)]"
14.8 nM,23 nM,,SEEPPISLDLTFHLLREVLEMARAEQLAQQAHSNRKLMEII (ends and bridges not checked) [corticotropin releasing factor (CRF)]
116 nM,113 nM,,"VILSLDVPIGLLRILLEQARYKAARNQAATNAQILAHV (peptide, UniProt Q99ML8 73-110, looked up) [mUcn2 (urocortin 2)]"
,,6.7 nM,FHLLREVLEMARAEQLAQEAHKNRKLMEII (modifications not checked) [Astressin]
